Test results taken from patent publication US20200087383A1 (NATIONAL CHENG KUNG UNIVERSITY, published 2020).

Key:
[1] = target: bovine serum albumin (BSA) (bovine, UniProt P02769 25-607); experiment: western blotting
[2] = target: T1, antigen comprising the amino acid sequence YKDWSEWGKAC (SEQ ID NO: 12); experiment: ELISA of hybridoma supernatants on the antigen comprising SEQ ID NO: 12
T1 construct: Any carrier or conjugate is not described; also called screening antigen
T1 peptide: YKDWSEWGKAC

bovine serum albumin (BSA), sequence (P02769 25-607 limits assumed): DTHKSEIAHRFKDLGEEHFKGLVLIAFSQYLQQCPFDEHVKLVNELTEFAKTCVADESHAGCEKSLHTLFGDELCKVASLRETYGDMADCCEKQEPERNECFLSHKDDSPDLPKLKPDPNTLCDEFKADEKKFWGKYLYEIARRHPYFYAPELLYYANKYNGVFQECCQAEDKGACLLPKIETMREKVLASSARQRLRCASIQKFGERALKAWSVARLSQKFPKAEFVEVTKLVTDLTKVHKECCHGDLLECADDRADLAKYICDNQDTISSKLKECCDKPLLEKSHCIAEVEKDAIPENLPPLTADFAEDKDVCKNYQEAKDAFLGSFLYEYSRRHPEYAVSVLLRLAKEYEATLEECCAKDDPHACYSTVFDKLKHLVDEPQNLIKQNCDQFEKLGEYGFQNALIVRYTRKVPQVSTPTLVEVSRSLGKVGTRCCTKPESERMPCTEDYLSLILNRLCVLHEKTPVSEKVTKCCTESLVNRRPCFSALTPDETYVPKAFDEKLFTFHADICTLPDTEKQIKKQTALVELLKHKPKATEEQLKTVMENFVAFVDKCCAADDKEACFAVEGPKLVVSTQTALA

B1: anti-DENV NS1 monoclonal antibody mAb 33D2 (antibody, V domains shown)
VH: DVQLQESGPGLVKPSQSLSLTCTVTGYSITSDYAWNWIRQFPGNKLEWMGFISYSGSARYNPSLISRTSITRDTSKNQFFLHLNSVTTEDTAIYYCARVERLGYFDVWGAGTTVTVSS
VL: DIVLTQSPASLAVSLGQRASISCKASQSVDYDGDSYMHWYQQKPGQPFKLLIYAASNLESGIPARFSGSGSGTVFTLNIHPVEEEDAATYYCQQSNEDPTFGGGTRLEIKR
notes: also called anti-NS1 mAb 33D2; anti-DENV antibody 33D2
binding result [1]: no binding
binding result [2]: binds
